From the supplement of paper PMC7125110
± gives the standard error. For part of these data: Fewer inactive variants are shown than the library holds.

B1: glmS ribozyme (parent)
chain: AUAAAAGCGCCAGAACUACAGAAAUGUAGUUGACGAGGAGGAGGUUUAUCGAAUUUUCGGCGGAUGCCUCCAAA

Experiments:
Details in all cases: with glucosamine-6-phosphate
[1] = variants of: B1; assay: kcat; higher = faster cleavage; RNA array
Summary of the method: (§1)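 kcat and KM were obtained from weighted Michaelis–Menten fits across concentrations of kobs values. Those came from one- or two-exponential decay fits to per-tile medians normalised to baseline and to non-cleaving reference variants. The variants were barcoded ribozymes transcribed in situ by E. coli RNA polymerase on sequenced MiSeq chips and tracked through a hybridised Cy3 probe at 37 °C, with 40 μM to 10 mM glucosamine-6-phosphate in HEPES/KCl/Mg(OAc)2 buffer flowed in.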

[2] = variants of: B1; assay: KM; higher = weaker cofactor use; RNA array
Summary of the method: as §1

[3] = variants of: B1; assay: self-cleavage kobs at 40 uM GlcN6P; higher = faster cleavage; RNA array
Summary of the method: as §1

[4] = variants of: B1; assay: self-cleavage kobs at 160 uM GlcN6P; higher = faster cleavage; RNA array
Summary of the method: as §1

[5] = variants of: B1; assay: self-cleavage kobs at 640 uM GlcN6P; higher = faster cleavage; RNA array
Summary of the method: as §1

[6] = variants of: B1; assay: self-cleavage kobs at 2500 uM GlcN6P; higher = faster cleavage; RNA array
Summary of the method: as §1

[7] = variants of: B1; assay: self-cleavage kobs at 10000 uM GlcN6P; higher = faster cleavage; RNA array
Summary of the method: as §1

| Variant | kcat [1] [s⁻¹] | KM [2] [µM] | self-cleavage kobs at 40 uM GlcN6P [3] [s⁻¹] | self-cleavage kobs at 160 uM GlcN6P [4] [s⁻¹] | self-cleavage kobs at 640 uM GlcN6P [5] [s⁻¹] | self-cleavage kobs at 2500 uM GlcN6P [6] [s⁻¹] | self-cleavage kobs at 10000 uM GlcN6P [7] [s⁻¹] |
| --- | --- | --- | --- | --- | --- | --- | --- |
| A39C A53C | 0.00121 ± 6.7e-05 | 2680 ± 240 | 2.09e-05 ± 8.9e-06 | 7.25e-05 ± 1.1e-05 | 0.000221 ± 2.6e-05 | 0.000595 ± 6.8e-05 | 0.000957 ± 0.0001 |
| C16U U57G | 7.51e-05 ± 1.3e-05 |  |  |  | 3.61e-05 ± 1.3e-05 | 4.22e-05 ± 8.4e-06 | 7.03e-05 ± 1.1e-05 |
| A39G U45C | 0.0102 ± 0.0019 | 3810 ± 980 | 0.00012 ± 2.4e-05 |  | 0.00126 ± 0.00034 | 0.00381 ± 0.0011 | 0.00774 ± 0.0016 |
| A12U C16G G40C | 0.000662 ± 7.1e-05 | 3490 ± 700 |  |  | 9.91e-05 ± 3.2e-05 | 0.000322 ± 0.00011 | 0.000481 ± 9.8e-05 |
| A6G U55A C68G | 2.16e-05 ± 2.8e-06 |  |  |  |  |  |  |
| U57C C71U | 0.000136 ± 1.9e-05 |  | < 1e-05 |  | 9.57e-05 ± 1.9e-05 | 8.71e-05 ± 2.6e-05 | 0.000139 ± 1.6e-05 |
| A12C G13C | 6.35e-05 ± 2.1e-06 | 1030 ± 240 |  |  |  | 4.89e-05 ± 2.3e-05 | 5.73e-05 ± 7.8e-06 |
| G32A A39U | 0.00242 ± 0.00045 | 6090 ± 1600 |  | 6.05e-05 ± 1.1e-05 | 0.000213 ± 2.9e-05 | 0.000855 ± 0.0001 | 0.00144 ± 0.00017 |
| G29A C68U | 0.000627 ± 0.0001 | 1720 ± 550 | 2.8e-05 ± 8.3e-06 | 6.11e-05 ± 8.5e-06 | 0.000122 ± 2.6e-05 | 0.000374 ± 4.7e-05 | 0.000549 ± 5.1e-05 |
| C16U G32U U69A | 9.39e-05 ± 2e-05 |  |  |  | 9.19e-05 ± 1.8e-05 |  | 0.000104 ± 1.9e-05 |
| C16U U54C U69C | 0.0043 ± 0.0021 |  | 0.000216 ± 7.7e-05 |  | 0.000965 ± 0.00017 | 0.00258 ± 0.00059 | 0.00361 ± 0.0013 |
| C11A G37A | < 1e-05 |  |  |  |  |  |  |
| C61G G62U C68G | 1.21e-05 ± 3.9e-06 |  |  |  |  |  |  |
| G7U G37C | < 1e-05 |  | < 1e-05 |  | < 1e-05 |  |  |
| A15C G66U | 0.000265 ± 3.3e-05 | 3080 ± 740 |  |  | 4.02e-05 ± 7.2e-06 | 0.000134 ± 1.5e-05 | 0.000194 ± 2.2e-05 |
| G29U U65A | 0.000516 ± 4.5e-05 | 2110 ± 340 |  | 3.8e-05 ± 1.4e-05 | 0.000114 ± 1.9e-05 | 0.000323 ± 5.9e-05 | 0.000411 ± 6e-05 |
| U31A C50G U65C C67U | 0.000126 ± 2.3e-05 |  | 8.02e-05 ± 1.6e-05 | 0.000177 ± 5e-05 | 0.000147 ± 4.9e-05 | 0.000191 ± 4.1e-05 | 0.000104 ± 1.9e-05 |

| Variant | kcat [1] [s⁻¹] | KM [2] [µM] | self-cleavage kobs at 40 uM GlcN6P [3] [s⁻¹] | self-cleavage kobs at 160 uM GlcN6P [4] [s⁻¹] | self-cleavage kobs at 640 uM GlcN6P [5] [s⁻¹] | self-cleavage kobs at 2500 uM GlcN6P [6] [s⁻¹] | self-cleavage kobs at 10000 uM GlcN6P [7] [s⁻¹] |
| --- | --- | --- | --- | --- | --- | --- | --- |
| G29C A33C | < 1e-05 |  |  |  | < 1e-05 |  |  |
| C10U C67G | 2.65e-05 ± 6.6e-06 |  |  |  |  | 2.88e-05 ± 1.1e-05 |  |
| A53C C67A | 0.000935 ± 0.0003 | 1500 ± 750 |  | 7.58e-05 ± 1.6e-05 | 0.000414 ± 6.3e-05 | 0.000435 ± 0.00011 | 0.000889 ± 0.00017 |
| G7A A15G U54G | 3.72e-05 ± 1.5e-05 |  | < 1e-05 | < 1e-05 |  |  |  |
| U57A U65G | 4.49e-05 ± 7.1e-06 |  | < 1e-05 |  |  | 4.6e-05 ± 1.3e-05 | 3.88e-05 ± 1.2e-05 |
| U46A C67A | 0.00257 ± 0.00048 | 1060 ± 330 | 8.65e-05 ± 2.9e-05 |  | 0.000988 ± 0.0002 | 0.00266 ± 0.00097 | 0.00209 ± 0.0006 |
| G13C G43U C67A | 6.76e-05 ± 3.4e-05 |  |  |  |  |  |  |
| C11U A33C | 1.8e-05 ± 2.7e-06 | 8710 ± 2600 |  |  |  |  |  |
| A12C G44A | 0.000291 ± 2.6e-05 | 1580 ± 270 |  |  | 8.35e-05 ± 1.2e-05 | 0.000204 ± 4e-05 | 0.00024 ± 3.8e-05 |
| A33C U45A | 0.000472 ± 1.3e-05 | 3500 ± 180 |  |  | 7.41e-05 ± 1.9e-05 | 0.000197 ± 2.9e-05 | 0.00035 ± 5.3e-05 |
| C50A G59U | < 1e-05 | 181 ± 24 | < 1e-05 | < 1e-05 | < 1e-05 |  | < 1e-05 |
| C16A A53U | 0.00183 ± 0.0008 |  |  |  | 0.000241 ± 6.3e-05 | 0.00116 ± 0.00029 | 0.00118 ± 0.00035 |
| U47C C71A | 0.00134 ± 0.00043 |  | 4.8e-05 ± 2e-05 | 4.4e-05 ± 1.9e-05 | 0.000204 ± 4.2e-05 | 0.000441 ± 0.00011 | 0.00101 ± 0.00017 |
| A6C | 0.000141 ± 4.6e-06 | 2100 ± 180 |  | < 1e-05 | 3.13e-05 ± 1.1e-06 | 7.95e-05 ± 1.5e-06 | 0.000115 ± 1.8e-06 |
| A14G A36U | 1.56e-05 ± 2.2e-07 |  | < 1e-05 | < 1e-05 |  |  |  |
| G40A A52U | 0.000228 ± 7.9e-05 |  |  |  |  | 9.49e-05 ± 1.5e-05 | 0.000146 ± 2.3e-05 |
| A33U U45A | 0.000201 ± 3.4e-05 | 4400 ± 1700 | < 1e-05 |  |  | 7.97e-05 ± 1.2e-05 | 0.000137 ± 1.5e-05 |
